Source: paper PMC10164551, “Structural basis of tRNAPro acceptor stem recognition by a bacterial trans-editing domain”

Target: T1, ProXp-ala K50A (Caulobacter crescentus, UniProt Q9ABV9 1-168, K50A)
T1 sequence: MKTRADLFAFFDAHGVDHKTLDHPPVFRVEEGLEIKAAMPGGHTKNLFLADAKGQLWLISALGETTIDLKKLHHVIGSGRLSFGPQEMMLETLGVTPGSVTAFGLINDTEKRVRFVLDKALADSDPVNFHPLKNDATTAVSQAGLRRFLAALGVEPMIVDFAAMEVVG
Assay: AUC; 1 mM MgCl2; 9.6 μM protein reaches about 36% bound; EMSA: 81 nM duplex annealed in 50 mM sodium phosphate pH 7.5, 150 mM NaCl, 0-114 μM protein, 1 h room temp, 16% native gel in TBE; NMR: same phosphate buffer, 1
Settings: protein: recombinant; tags: N-terminal His6 removed by thrombin; leaves Gly-Ser-His; hairpin; 7 bp stem, 3' ACCA single-stranded

## CGGCGAGUUCGCUCGCCGACCA (structured_RNA) [microhelixPro]
  binding signal: ~8 fold weaker than WT
